Laboratory results taken from paper PMC12374583 (2025).

Target: CR3 (Homo sapiens, UniProt P11215)
Assay: MST

B1: Complement C3 (peptide)
chain: SSKITHRIHWESASLLR
Kd: 5.73 nM
